B1: VHH 3E6: VHH binding gum arabic, potato lectin and leaf surface; SEQ ID NO:7 by order of the list (protein, listed as Lama glama)
VHH: QVQLQESGGGLVQPGGTLSLSCAASGFNVRWYGMGWFRQAPGKEREGVACISALQETTAYADSVKGRFTLSRDNPKNTLSLQMNNLQPEDTGVYYCATTDCDDSSRMTYTSYLGQGTQVTVSS
modifications: 3E6
B2: Microcapsules containing uvitex OB VHH 3E6: polyurea microcapsules containing the fluorescent tracer Uvitex OB, coupled with (monovalent) VHH 3E6 (conjugate)
VHH: B1 VHH
modifications: left off: small tags and cut ends
notes: polyurea microcapsules containing the fluorescent tracer Uvitex OB, coupled with (monovalent) VHH 3E6

Legend:
gum arabic = assay: VHH binding to gum arabic in ELISA; design: species or system acacia tree
Description: Titration of VHH antibody fragments was performed on ELISA plates (Maxisorp, Nunc) coated with 100 μl per well 100 μg/ml gum arabic in 50 mM carbonate pH 9.6. Plates were coated at 4° C. overnight and coating was continued at room temperature for 1 hour on the next day. Plates were washed three times with PBS/0.05%-TWEEN®-20 and blocked with 5% skimmed milk in PBS for 1 hour. Four-fold serial dilutions of purified VHH antibody fragments were prepared in 1% MPBS/0.05%-TWEEN®-20 in polypropylene 96-well plates. Antibody concentrations ranged from 3 μg/ml to 12 ng/ml. Antibody dilutions were transferred to the gum arabic-coated plates and VHH antibody fragments were allowed to bind for 1 hour at room temperature. Bound VHH were detected with sequential incubations with monoclonal mouse anti-histidine antibodies (Abd Serotec) and rabbit anti-mouse IgG whole molecule antibodies conjugated with alkaline phosphatase (RaM/AP) (Sigma) in 1% MPBS/0.05%-TWEEN®-20. Unbound antibodies were removed by washing three times with PBS/0.05%-TWEEN®-20 after each antibody incubation. The plates were washed an additional two times with PBS and 100 μl pNPP disodium hexahydrate substrate (Sigma) was added to each well. The absorbance at 405 nm was measured and plotted as function of antibody concentration (see Table 1).

potato leaf discs = assay: VHH binding at different pH, leaf dip experiment; design: species or system potato (variety Desiree); conditions: whole range tested from pH 2 to pH 11; 5 μg/ml; 1 hour
Description: In order to test applicability of VHH as binders for greenhouse or field applications where binding supposedly may occur at pH-values, deviating strongly from physiological conditions in which antibodies naturally bind their targets, a leaf dip VHH binding experiment was carried out in a series of solutions with different pH. The following solutions were prepared: 50 mM glycine pH 2.0, 50 mM sodium acetate pH 4.0, 50 mm sodium carbonate pH 9.6, and 10 mM sodium hydroxide pH […] 8 mm potato leaf discs (variety Desiree) were cut using a puncher tool. The leaf discs were first equilibrated to the different pH by washing three times with solutions at different pH. Hexahistidine-tagged VHH were diluted to 5 μg/ml in solutions with different pH, added to the corresponding equilibrated leaf discs, and binding of VHH was allowed for 1 hour. After incubation with VHH, leaf discs were washed three times with solutions at the corresponding different pH. After that, all were washed two times with PBS to equilibrate leaf discs to PBS. Bound VHH were detected by incubation with monoclonal mouse anti-histidine antibodies directly conjugated with Alexa-488 fluorescent dye (Abd Serotec) in PBS for 1 hour. Unbound anti-histidine antibodies were removed by washing five times with PBS. Leaf discs were analyzed for bound VHH with microscopy.

[1] = ELISA-like assay of VHH-coupled microcapsules, unrelated antigen-coated wells; type: binding; conditions: uvitex OB microcapsules
Description: Polyurea microcapsules were produced by interfacial polymerization. With the objective to generate functionalized polyurea microcapsules, VHH were coupled to microcapsules containing either the insecticide lambda cyhalothrin or the fluorescent tracer molecule Uvitex OB and a shell with incorporated lysine to surface-expose carboxylic acid residues. Lambda cyhalothrin was dissolved in benzyl benzoate in concentrations between 30% and 66% before encapsulation. Alternatively, a core of 1.5% Uvitex in benzyl benzoate was used for easy fluorescent visualization of microcapsules. Toluene diisocyanate (TDI) and polymethylenepolyphenylene isocyanate (PMPPI) were dissolved in the oil phase in different ratios and concentrations in the oil phase to produce desired shell characteristics. Stirring speed for the emulsion was varied to control droplet size and consequently microcapsule diameter. Microcapsules with approximate diameters of 5 μm, 10 μm, or 50 μm were successfully produced. Bifunctional lysine and trifunctional diethylene triamine (DETA) were used in different ratios and/or added sequentially during encapsulation to on the one hand maximize amounts of carboxylic acids on the microcapsules' surface and on the other hand obtain sufficient strength of capsule shells. Microcapsules were washed with water after production and stored as microcapsule suspensions in water. The microcapsules were washed with 100 mM MES, 500 mM NaCl, pH 6.0 immediately before coupling of VHH using a vacuum-tight filter flask and P 1.6 filter funnel (Duran). Alternatively, glass filter holders with 0.45 μm disposable membrane filters (Millipore) or 0.45 μm 96-well deep-well filtration plates (Millipore) were used. Couplings of VHH to microcapsules were performed using carbodiimide-mediated couplings using a one-step procedure, a two-step procedure without N-hydroxysuccinimide (NHS), or a two-step procedure with NHS. The major difference between one-step coupling and two-step coupling procedures is the occurrence of cross-linking of VHH in one-step coupling procedures. The protocols for the three procedures are largely similar and differ as follows. For one-step couplings VHH were added to washed microcapsules and 1-Ethyl-3-[3-dimethylaminopropyl]carbodiimide Hydrochloride (EDC) (Pierce) was added and coupling reaction was allowed for 2 hours at room temperature. For two-step couplings washed microcapsules were first activated with EDC in the presence or absence of NHS. Excess unreacted EDC (and NHS) were removed by quick sequential washes with ice-cold buffers and VHH were added and allowed to react with activated carboxylic acids on microcapsule shells. For ø 10 μm microcapsules 2-20 μg VHH were coupled per mg microcapsules. […]

| Molecule | absorbance at 405 nm (gum arabic; Table 2, gum arabic coating, VHH 3 μg/ml) | absorbance at 405 nm (gum arabic; [VHH] 3 μg/ml (200 nM), gum arabic − (well without gum arabic)) | binding to leaf discs at different pH (potato leaf discs) | Area of bound microcapsules ([1]; no coating (second series, with unrelated antigen rows), surface coverage 100%) | Area of bound microcapsules ([1]; unrelated antigen, surface coverage 4%) | Area of bound microcapsules ([1]; unrelated antigen, surface coverage 20%) | Area of bound microcapsules ([1]; unrelated antigen, surface coverage 100%) |
| --- | --- | --- | --- | --- | --- | --- | --- |
| B1 | 0.882 | 0.090 | detectable binding | – | – | – | – |
| B2 | – | – | – | 68.181 | 23.525 | 47.906 | 84.508 |
